Results from the DeepSol protein solubility set.

test: soluble on expression in E. coli; label from the status in PepcDB or PDB records

Which “soluble on expression in E. coli” value does the source give for “GPRRLSIEGNIAVGKSTFVKLLTKTYPEWHVATEPVATWQNIQAAGNQKACTAQSLGNLLDMMYREPARWSYTFQTFSFLSRLKVQLEPFPEKLLQARKPVQIFERSVYSDRYIFAKNLFENGSLSDIEWHIYQDWHSFLLWEFASRITLHGFIYLQASPQVCLKRLYQRAREEEKGIELAYLEQLHGQHEAWLIHKTTKLHFEALMNIPVLVLDVNDDFSEEVTKQEDLMREVNTFVKNL” here?
The value was “soluble”.

Which “soluble on expression in E. coli” value does the source give for “MGPVFVVGQIDEMVPHPDSDHLNICQVNIGDKKVQIVAGAPNASPGLKTIVALPGAMMPSGALIFPGKLRGEDSYGMMCSPRELALPNAPQKRGIIELDDSAVVGEALEHHHHHH” here?
The value was “not soluble”.

For “MRQWTAIHLAKLARKASRAVGKRGTDLPGQIARKVDTDVLRKLAEQVDDIVFISGTNGKTTTSNLIGHTLKANNIQIIHNNEGANMAAGITSAFIMQSTPKTKIAVIEIDEGSIPRVLKEVTPSMMVFTNFFRDQMDRFGEIDIMVNNIAETISNKGIKLLLNADDPFVSRLKIASDTIVYYGMKAHAHEFEQSTMNESRYCPNCGRLLQYDYIHYNQIGHYHCQCGFKREQAKYEISSFDVAPFLYLNINDEKYDMKIAGDFNAYNALAAYTVLRELGLNEQTIKNGFETYTSDNGRMQYFKKERKEAMINLAKNPAGMNASLSVGEQLEGEKVYVISLNDNAADGRDTSWIYDADFEKLSKQQIEAIIVTGTRAEELQLRLKLAEVEVPIIVERDIYKATAKTMDYKGFTVAIPNYTSLAPMLEQLNRSFEGGQS”, which “soluble on expression in E. coli” value is on record?
Its value is “not soluble”.

For “MSLGLDNLYRVLDANVNRTSEGLRVLEDLARFCYNDRLLSKRIKELRHSVRKNIAGLVPNLISSRDSVNDVGLKTSMEMDIDRKASLLDLARANFKRVQEALRTVEESLKVLNENDLSKFYESCRFETYSIEKEYFKVLTFENKKGRLNEIITGLYCITSEEHSKGRSNIEVVEKMIKAGVKIIQYREKKKSLLEKYNECKKIREMTLDSGVTFIVNDNIDIAMMVKADGVHIGQDDLPIEKVRELVGDEMIIGISTHSPTQAEDAVRRGADYIGVGPLYRTYTKEDVCEPVGLEYLDYVVKNINIPYVAIGGIKEHNMDEVLARGARCIAMVTEIVGADDIEEKISKVKSKFSRGEGHHHHHH”, which “soluble on expression in E. coli” value is on record?
Its value is “soluble”.

For “MESYLTVIEQNGQLLVDSREVAEMVGKRHTDLLRSIDGYVAILLNAKLRSVEFFLESTYKDATGRSLKHFHLTRKGCDMVANKMTGAKGVLFTAQYVSKFEEMEKALKARPSLIDTYLDMNEDERAIAYFTERKAKRELQEQLTLAEPKVEKYDRFLNTDGLMKIGQVAKAIGIKGMGQNNLFRFLRENKVLIDGTNKNAPYQKYVERGFFQVKTQETSVGIKTITLVTPKGADFIVDLLKKHGHKREIAS”, which “soluble on expression in E. coli” value is on record?
The value was “not soluble”.

Which “soluble on expression in E. coli” value does the source give for “MKFFSNPKQEAQTHFHLHKDKETMSVSAIFGTGIVTVAASPVLRQFQVPKLGNGGGLGMVIECSSRPQKKSTAHHRKTRPKKTQPWDIKRKPTVYAPLPPLPAEWSPFTLASDDGGAATAAGDLVSGAA” here?
Its value is “not soluble”.

For “MLKRPIHLSHDFLAEVVDKSSVVVDATMGNGNDTAFLAQLAKKVYAFDVQEQAIRKTSERLAQLGLSNAELILAGHEAVDQYVTEPVRAAIFNLGYLPSADKSIITLPNTTLQALSKLLTLLMVGGRIAIMVYYGHDGGSLEKDALLDFVKQLDQRKVSAMLYQPLNQVNTPPFLIMLEKLADF”, which “soluble on expression in E. coli” value is on record?
The value was “not soluble”.

With “MGSDKIHHHHHHMSNSLKASTAGLAIVDKSRQRLGWTKTSTARWWQDAHTSRATLRRFWQGDRIQREIFIAICQAVGIGNWEAIAELSNADLESTVVIPTPYLDCNEAPDLESFYGRNQELAQLEEWLTSQNCKLVTINGIAGIGKTALALALVDRIQLKFDCLIWKSLQTSPSLISLLNSLLNSFEQGVVVQNIQQGTAQLIQQLQKHHCLLILDGLEAIFSQPEDLSYGQFIQQLSRERHQSCILISSREQPNNIETNTKIYHCLNLKGLPKTEAVELLQSRGFTGKELGLSVLIQLYRGNPLVLKLVTPLIQSVFGGNVAAFLSQHTLIVGDRLRVILKQQFEQLSGLEQDILYWLAIWQEPVSFSRLQTHLLISVDPAMVLEGIVALERRSLLEKWVSDYELSFTLQPLVMKVVTDELIEHTVQEIDRVVQSHDIRHFQILRTHWLLRPGTDDIAGDRILTQLWKKLWHLYGATLPQIFNQILLLLKSQSPLAMGYIGSNVAILSGIDLL” as the sequence, how does the “soluble on expression in E. coli” value read?
Its value is “not soluble”.

Which “soluble on expression in E. coli” value does the source give for “MGSDKIHHHHHHAEVAVPDTTPKDTASAVKITYEDPRDPFEGFNRVMWDFNYLYLDRYLYRPVAHGYNDYIPLPAKMGVNNFLQNLEEPSSVVNNLLQGKWGWAANAGGRFTVNTTIGLLGVIDVADMMGMTRKQDEFNEVLGYYGVPNGPYFMAPFAGPYIVRELASDWVDGLYFPLSELTMWQSVLKWGLKSLHARASAIDQERLVDNALDPYAFVKDAYIQHMDYKVYDGNVPQKQEDDELLDQYMQELE” here?
The value was “not soluble”.

Which “soluble on expression in E. coli” value does the source give for “GMFVQSALHQLKVAVDTSIQMLDQYTEIDLKIAPIQSKRSLFEMYAHLSLICHADLLILNGSTEKELHTFYKEQTPETIAQMQKTMIQGYDLLSKTFLSYSNEQLAEMKTAYWGISYSRFEWLLEIVAHFYHHRGQIHILLCEHMKDPNIPLFQ” here?
The value was “soluble”.

With “MANVGGRRKPAADARLEVIQKLFPEAVVDGGIDWELLKRVFGGHERQEAYEFTWPGKAEARRLAELPASGVLRPDQAASKQWETTNNWYIEGDNLEALKLLRTSHAGTIQMIYIDPPYNTGKVLTYKDNWRKGKAVVPSGIQEEARGHVGWLNMMYPRLWVARELLAETGAIFISIDDTEQANLRKMCDEIFGERNFVATFIWQRAFSPVNMNKFASRNHDFILCYAKNIDRLAWYGLPRHPEADVRYANPDNDPRGPWMSGDLSVGPPIPEKIYEIVTPSGRVVSPPNGYCWRVTKERFAELAADNRIWFGKDGNGVPRLKRFLSEVKSTVTPLTIWTHDEVSHSQEAKKELKELFDGLAVMDYPKPVKLIQRMVALTTRDDDPILDFFSGSATTAHAVMQQNAEDGGRRSFIMVQLPERLAETSEAYRVGFRTICDIGRERIRRAGEKIVYETGKTELDIGFKVFRIERTNQPAR” as the sequence, how does the “soluble on expression in E. coli” value read?
The value was “not soluble”.

With “MNRLSIFVDGNNMFYAQQKNGWFFDPRRVLEYFKHEQSETTLINAFWYTGLKDPQDQRGFRDALISLGYTVRTKILKEYYDDTSGRYSQKANLDIEIVVDMFNTVDQYDRVVLFSGDGDFERAIELLRSKNTHITVVSTEGMIARELRNATDRYIDLNDIRDQIEKT” as the sequence, how does the “soluble on expression in E. coli” value read?
Its value is “not soluble”.

For “MGSDKIHHHHHHMIPKNIHLIFLRKDEPFPELFEKCKQEIQVNHPDWNIRLYNKDDAQDILNQDLPEYIEAYNAFYHNVQKADFLRLALVYLYGGFYMDLDMLSLKPLDELRKYNLVLGEEKIVCQAEQEALNLRYRLRIANYMFGGIPKHPFLHRIMDEMAERATIILKSQQEILDITGPGLLTDTYWDNYGMYTDITLLRNTDKRCRQPYHNEISCHFGDYAAHLHAGTWRTGI”, which “soluble on expression in E. coli” value is on record?
The value was “not soluble”.

For “MVSSKLATPLSIQGEVIYPDDSGFDAIANIWDGRHLQRPSLIARCLSAGDVAKSVRYACDNGLEISVRSGGHNPNGYATNDGGIVLDLRLMNSIHIDTAGSRARIGGGVISGDLVKEAAKFGLAAVTGMHPKVGFCGLALNGGVGFLTPKYGLASDNILGATLVTATGDVIYCSDDERPELFWAVRGAGPNFGVVTEVEVQLYELPRKMLAGFITWAPSVSELAGLLTSLLDALNEMADHIYPSVFVGVDENRAPSVTVCVGHLGGLDIAERDIARLRGLGRTVSDSIAVRSYDEVVALNAEVGSFEDGMSNLWIDREIAMPNARFAEAIAGNLDKFVSEPASGGSVKLEIEGMPFGNPKRTPARHRDAMGVLALAEWSGAAPGSEKYPELARELDAALLRAGVTTSGFGLLNNNSEVTAEMVAEVYKPEVYSRLAAVKREYDPENRFRHNYNIDPEGS”, which “soluble on expression in E. coli” value is on record?
Its value is “soluble”.

For “SVIGRIHSFESCGTVDGPGIRFITFFQGCLMRCLYCHNRDTWDTHGGKEVTVEDLMKEVVTYRHFMNASGGGVTASGGEAILQAEFVRDWFRACKKEGIHTCLDTNGFVRRYDPVIDELLEVTDLVMLDLKQMNDEIHQNLVGVSNHRTLEFAKYLANKNVKVWIRYVVVPGWSDDDDSAHRLGEFTRDMGNVEKIELLPYHELGKHKWVAMGEEYKLDGVKPPKKETMERVKGILEQYGHKVMF”, which “soluble on expression in E. coli” value is on record?
Its value is “soluble”.
